In article PMC12521702, “Development of a trispecific fusion protein based on angiotensin-converting enzyme 2, glycoprotein 130, and tumor necrosis factor receptor 2 as a promising therapeutic for COVID-19” (Molecular Biomedicine, 2025):

B1: ACE2 (M)-Fc-mGP130 (Fc fusion)
chain: QSTIEEQAKFFLDYFNHEAEDLFYQSSLASWNYNTNITEENVQNMNNAGDKWSAFLKEQSTWAQMYPLQEIQNLTVKLQLQALQQNGSSVLSEDKSKRLNTILNTMSTIYSTGKVCNPDNPQECLLLEPGLNEIMANSLDYNERLWAWESWRSEVGKQLRPLYEEYVVLKNEMARANHYEDYGDYWRGDYEVNGVDGYDYSRGQLIEDVEHTFEEIKPLYEHLHAYVRAKLMNAYPSYISPIGCLPAHLLGDMWGQFWTNLYSLTVPFGQKPNIDVTDAMVDQAWDAQRIFKEAEKFFVSVGLPNMTQGFWEYSMLTDPGNVQKAVCHPTAWDLGKGDFRILMCTKVTMDDFLTAHHEMGHIQYDMAYAAQPFLLRNGANEGFHEAVGEIMSLSAATPKHLKSIGLLSPDFQEDNETEINFLLKQALTIVGTLPFTYMLEKWRWMVFKGEIPKDQWMKKWWEMKREIVGVVEPVPHDETYCDPASLFHVSNDYSFIRYYTRTLYQFQFQEALCQAAKHEGPLHKCDISNSTEAGQKLFNMLRLGKSEPWTLALENVVGAKNMNVRPLLNYFEPLFTWLKDQNKNSFVGWSTDWSPYADQSIKVRISLKSALGDKAYEWNDNEMYLFRSSVAYAMRQYFLKVKNQMILFGEEDVRVANLKPRISFNFFVTAPKNVSDIIPRTEVEKAIRMSRSRINDAFRLNDNSLEFLGIQPTLGPPNQPPVSGGGGSGGGGSGGGGSQLLEPCGYIYPEFPVVQRGSNFTAICVLKEACLQHYYVNASYIVWKTNHAAVPREQVTVINRTTSSVTFTDVVLPSVQLTCNILSFGQIEQNVYGVTMLSGFPPDKPTNLTCIVNEGKNMLCQWDPGRETYLETNYTLKSEWATEKFPDCQSKHGTSCMVSYMPTYYVNIEVWVEAENALGKVSSESINFDPVDKVKPTPPYNLSVTNSEELSSILKLSWVSSGLGGLLDLKSDIQYRTKDASTWIQVPLEDTMSPRTSFTVQDLKPFTEYVFRIRSIKDSGKGYWSDWSEEASGTTYEDRPSRPPSFWYKTNPSHGQEYRSVRLIWKALPLSEANGKILDYEVILTQSKSVSQTYTVTGTELTVNLTNDRYVASLAARNKVGKSAAAVLTIPSPHVTAAYSVVNLKAFPKDNLLWVEWTPPPKPVSKYILEWCVLSENAPCVEDWQQEDATVNRTHLRGRLLESKCYQITVTPVFATGPGGSESLKAYLKQAAPARGPTVRTKKVGKNEAVLAWDQIPVDDQNGFIRNYSISYRTSVGKEMVVHVDSSHTEYTLSSLSSDTLYMVRMAAYTDEGGKDGPEFTFTTPKFAQGEIE
B2: ACE2 (M)-Fc-hGP130 (Fc fusion)
chain: QSTIEEQAKFFLDYFNHEAEDLFYQSSLASWNYNTNITEENVQNMNNAGDKWSAFLKEQSTWAQMYPLQEIQNLTVKLQLQALQQNGSSVLSEDKSKRLNTILNTMSTIYSTGKVCNPDNPQECLLLEPGLNEIMANSLDYNERLWAWESWRSEVGKQLRPLYEEYVVLKNEMARANHYEDYGDYWRGDYEVNGVDGYDYSRGQLIEDVEHTFEEIKPLYEHLHAYVRAKLMNAYPSYISPIGCLPAHLLGDMWGQFWTNLYSLTVPFGQKPNIDVTDAMVDQAWDAQRIFKEAEKFFVSVGLPNMTQGFWEYSMLTDPGNVQKAVCHPTAWDLGKGDFRILMCTKVTMDDFLTAHHEMGHIQYDMAYAAQPFLLRNGANEGFHEAVGEIMSLSAATPKHLKSIGLLSPDFQEDNETEINFLLKQALTIVGTLPFTYMLEKWRWMVFKGEIPKDQWMKKWWEMKREIVGVVEPVPHDETYCDPASLFHVSNDYSFIRYYTRTLYQFQFQEALCQAAKHEGPLHKCDISNSTEAGQKLFNMLRLGKSEPWTLALENVVGAKNMNVRPLLNYFEPLFTWLKDQNKNSFVGWSTDWSPYADQSIKVRISLKSALGDKAYEWNDNEMYLFRSSVAYAMRQYFLKVKNQMILFGEEDVRVANLKPRISFNFFVTAPKNVSDIIPRTEVEKAIRMSRSRINDAFRLNDNSLEFLGIQPTLGPPNQPPVSGGGGSGGGGSGGGGSELLDPCGYISPESPVVQLHSNFTAVCVLKEKCMDYFHVNANYIVWKTNHFTIPKEQYTIINRTASSVTFTDIASLNIQLTCNILTFGQLEQNVYGITIISGLPPEKPKNLSCIVNEGKKMRCEWDGGRETHLETNFTLKSEWATHKFADCKAKRDTPTSCTVDYSTVYFVNIEVWVEAENALGKVTSDHINFDPVYKVKPNPPHNLSVINSEELSSILKLTWTNPSIKSVIILKYNIQYRTKDASTWSQIPPEDTASTRSSFTVQDLKPFTEYVFRIRCMKEDGKGYWSDWSEEASGITYEDRPSKAPSFWYKIDPSHTQGYRTVQLVWKTLPPFEANGKILDYEVTLTRWKSHLQNYTVNATKLTVNLTNDRYLATLTVRNLVGKSDAAVLTIPACDFQATHPVMDLKAFPKDNMLWVEWTTPRESVKKYILEWCVLSDKAPCITDWQQEDGTVHRTYLRGNLAESKCYLITVTPVYADGPGSPESIKAYLKQAPPSKGPTVRTKKVGKNEAVLEWDQLPVDVQNGFIRNYTIFYRTIIGNETAVNVDSSHTEYTLSSLTSDTLYMVRMAAYTDEGGKDGPEFTFTTPKFAQGEIE

How the values were obtained:
[1] = target: T1, mouse Hyper-IL-6 (mouse, UniProt P22272;P08505); test: ELISA; plates coated with 2 μg/mL Hyper-IL-6-His in carbonate-bicarbonate buffer pH 9.6; serial dilutions of fusion proteins from 50 nM, 1 h at 37 °C; HRP anti-human IgG; conditions: both partners purified
T1 construct: also called murine Hyper-IL-6; Hyper-IL-6-His; not shown: His tag, C-terminal, kept
T1 chain: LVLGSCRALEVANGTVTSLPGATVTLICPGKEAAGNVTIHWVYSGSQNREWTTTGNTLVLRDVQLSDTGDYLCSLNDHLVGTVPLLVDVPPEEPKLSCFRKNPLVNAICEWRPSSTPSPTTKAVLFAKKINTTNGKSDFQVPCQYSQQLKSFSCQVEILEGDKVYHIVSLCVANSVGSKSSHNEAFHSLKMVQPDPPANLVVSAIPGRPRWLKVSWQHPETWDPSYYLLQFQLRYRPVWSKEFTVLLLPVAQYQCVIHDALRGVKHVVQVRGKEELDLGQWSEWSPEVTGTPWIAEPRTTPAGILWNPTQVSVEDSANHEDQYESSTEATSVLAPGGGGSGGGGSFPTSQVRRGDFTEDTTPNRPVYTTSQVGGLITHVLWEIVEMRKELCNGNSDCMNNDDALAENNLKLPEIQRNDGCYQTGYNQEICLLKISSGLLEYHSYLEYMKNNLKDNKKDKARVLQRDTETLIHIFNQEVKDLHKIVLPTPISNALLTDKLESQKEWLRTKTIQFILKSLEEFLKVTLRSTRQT

[2] = target: human Hyper-IL-6 (human, UniProt P08887 20-355); test: as above; conditions: both partners purified

| Binder | EC50 [1] | EC50 [2] |
| --- | --- | --- |
| B1 | 1.83 nM | – |
| B2 | – | 1.55 nM |
